Data taken from the supplement of paper PMC10567573.

B1: WSB1 (parent)
chain: FSHDGLHVASLADDKMVRFWRIDE

Variants of: B1
Assay: protein stability index of a GFP-peptide fusion (GPS, HEK-293T) (PSI 1-6); higher = more stable
Settings: c terminus: a fixed tail appended
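Further: lentivirally expressed fusions sorted by FACS into six bins by GFP to DsRed ratio, PSI derived from sequencing read proportions per bin multiplied by bin number.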

Variant	protein stability index
FSHDGLHVASLADDKMVEFWRIDE [R18E]	1.92
FSHDGLHVASLADDKMVYFWRIDE [R18Y]	1.89
FSHDGLHVASLADDKMVMFWRIDE [R18M]	2.37
FSHDGLHVASLADDKMVQFWRIDE [R18Q]	2.01
FSHDGLHVASLADDKMVKFWRIDE [R18K]	2.12
FSHDGLHVASLADDKMVSFWRIDE [R18S]	1.31
FSHDGLHVASLADDKMVPFWRIDE [R18P]	1.83
FSHDGLHVASLADDKMVGFWRIDE [R18G]	1.26
FSHDGLHVASLADDKMVDFWRIDE [R18D]	2.03
FSHDGLHVASLADDKMVCFWRIDE [R18C]	1.43
FSHDGLHVASLADDKMVAFWRIDE [R18A]	1.41
FSHDGLHVASLADDKMVIFWRIDE [R18I]	2.23
FSHDGLHVASLADDKMVTFWRIDE [R18T]	1.08
FSHDGLHVASLADDKMVLFWRIDE [R18L]	1.32
FSHDGLHVASLADDKMVRCWRIDE [F19C]	2.32
FSHDGLHVASLADDKMVRMWRIDE [F19M]	3.75
FSHDGLHVASLADDKMVRHWRIDE [F19H]	2.66
FSHDGLHVASLADDKMVRRWRIDE [F19R]	3.11
FSHDGLHVASLADDKMVRPWRIDE [F19P]	2.65
FSHDGLHVASLADDKMVRDWRIDE [F19D]	3.37
FSHDGLHVASLADDKMVRAWRIDE [F19A]	2.27
FSHDGLHVASLADDKMVRKWRIDE [F19K]	2.38
FSHDGLHVASLADDKMVRWWRIDE [F19W]	1.57
FSHDGLHVASLADDKMVRGWRIDE [F19G]	2.38

Variant	protein stability index
FSHDGLHVASLADDKMVRQWRIDE [F19Q]	2.03
FSHDGLHVASLADDKMVRLWRIDE [F19L]	3.32
FSHDGLHVASLADDKMVREWRIDE [F19E]	3.92
FSHDGLHVASLADDKMVRVWRIDE [F19V]	2.15
FSHDGLHVASLADDKMVRSWRIDE [F19S]	2.42
FSHDGLHVASLADDKMVRTWRIDE [F19T]	3.13
FSHDGLHVASLADDKMVRNWRIDE [F19N]	2.62
FSHDGLHVASLADDKMVRIWRIDE [F19I]	1.49
FSHDGLHVASLADDKMVRYWRIDE [F19Y]	2.33
FSHDGLHVASLADDKMRRFWRIDE [V17R]	2.03
FSHDGLHVASLADDKMHRFWRIDE [V17H]	1.51
FSHDGLHVASLADDKMMRFWRIDE [V17M]	1.79
FSHDGLHVASLADDKMERFWRIDE [V17E]	2.75
FSHDGLHVASLADDKMCRFWRIDE [V17C]	3.55
FSHDGLHVASLADDKMLRFWRIDE [V17L]	1.27
FSHDGLHVASLADDKMNRFWRIDE [V17N]	1.5
FSHDGLHVASLADDKMSRFWRIDE [V17S]	1.54
FSHDGLHVASLADDKMIRFWRIDE [V17I]	2.42
FSHDGLHVASLADDKMDRFWRIDE [V17D]	1.96
FSHDGLHVASLADDKMTRFWRIDE [V17T]	1.56
FSHDGLHVASLADDKMKRFWRIDE [V17K]	1.85
FSHDGLHVASLADDKMFRFWRIDE [V17F]	1.58
FSHDGLHVASLADDKMQRFWRIDE [V17Q]	2.14
FSHDGLHVASLADDKMARFWRIDE [V17A]	1.15

Variant	protein stability index
FSHDGLHVASLADDKMYRFWRIDE [V17Y]	1.91
FSHDGLHVASLADDKMPRFWRIDE [V17P]	2.42
FSHDGLHVASLADDKMGRFWRIDE [V17G]	1.03
FSHDGLHVASLADDWMVRFWRIDE [K15W]	1.67
FSHDGLHVASLADDNMVRFWRIDE [K15N]	1.65
FSHDGLHVASLADDCMVRFWRIDE [K15C]	1.53
FSHDGLHVASLADDRMVRFWRIDE [K15R]	2.02
FSHDGLHVASLADDTMVRFWRIDE [K15T]	1.44
FSHDGLHVASLADDSMVRFWRIDE [K15S]	1.76
FSHDGLHVASLADDVMVRFWRIDE [K15V]	2.78
FSHDGLHVASLADDYMVRFWRIDE [K15Y]	1.34
FSHDGLHVASLADDHMVRFWRIDE [K15H]	1.65
FSHDGLHVASLADDAMVRFWRIDE [K15A]	2.18
FSHDGLHVASLADDIMVRFWRIDE [K15I]	1.49
FSHDGLHVASLADDEMVRFWRIDE [K15E]	2.68
FSHDGLHVASLADDGMVRFWRIDE [K15G]	1.69
FSHDGLHVASLADDQMVRFWRIDE [K15Q]	1.04
FSHDGLHVASLADDLMVRFWRIDE [K15L]	2.49
FSHDGLHVASLADDFMVRFWRIDE [K15F]	1.35
FSHDGLHVASLADDDMVRFWRIDE [K15D]	2.33
FSHDGLHVMSLADDKMVRFWRIDE [A9M]	1.79
FSHDGLHVCSLADDKMVRFWRIDE [A9C]	2.51
FSHDGLHVNSLADDKMVRFWRIDE [A9N]	2.09
FSHDGLHVSSLADDKMVRFWRIDE [A9S]	2.17

Variant	protein stability index
FSHDGLHVQSLADDKMVRFWRIDE [A9Q]	1.89
FSHDGLHVPSLADDKMVRFWRIDE [A9P]	1.76
FSHDGLHVDSLADDKMVRFWRIDE [A9D]	1.71
FSHDGLHVHSLADDKMVRFWRIDE [A9H]	1.7
FSHDGLHVFSLADDKMVRFWRIDE [A9F]	5.19
FSHDGLHVISLADDKMVRFWRIDE [A9I]	2.66
FSHDGLHVTSLADDKMVRFWRIDE [A9T]	1.25
FSHDGLHVESLADDKMVRFWRIDE [A9E]	2.01
FSHDGLHVWSLADDKMVRFWRIDE [A9W]	2.44
FSHDGLHVLSLADDKMVRFWRIDE [A9L]	2.62
FSHDGLHVKSLADDKMVRFWRIDE [A9K]	1.67
FSHDGLHVVSLADDKMVRFWRIDE [A9V]	2.55
FSHDGLHVASMADDKMVRFWRIDE [L11M]	1.69
FSHDGLHVASRADDKMVRFWRIDE [L11R]	1.66
FSHDGLHVASGADDKMVRFWRIDE [L11G]	1.71
FSHDGLHVASVADDKMVRFWRIDE [L11V]	2.03
FSHDGLHVASQADDKMVRFWRIDE [L11Q]	1.67
FSHDGLHVASPADDKMVRFWRIDE [L11P]	1.47
FSHDGLHVASDADDKMVRFWRIDE [L11D]	2.06
FSHDGLHVASHADDKMVRFWRIDE [L11H]	2.98
FSHDGLHVASIADDKMVRFWRIDE [L11I]	2.2
FSHDGLHVASNADDKMVRFWRIDE [L11N]	1.78
